Results on one substance are retold here after patent US20190382490A1.

Test in all cases: Fc receptor binding, method not stated
Assay [1] addresses CD16-V158 (FcγRIIIa) (human) (UniProt P08637).
The target in assay [2] is CD32-R131 (FcγRIIa) (human) (UniProt P12318).
Assay [3] concerns the target CD32-H131 (FcγRIIa) (human) (UniProt P12318).
The target in the next assay is CD64 (FcγRIa) (human) (UniProt P12314).
Chain of UniProt P12314 (P12314 16-288 limits assumed): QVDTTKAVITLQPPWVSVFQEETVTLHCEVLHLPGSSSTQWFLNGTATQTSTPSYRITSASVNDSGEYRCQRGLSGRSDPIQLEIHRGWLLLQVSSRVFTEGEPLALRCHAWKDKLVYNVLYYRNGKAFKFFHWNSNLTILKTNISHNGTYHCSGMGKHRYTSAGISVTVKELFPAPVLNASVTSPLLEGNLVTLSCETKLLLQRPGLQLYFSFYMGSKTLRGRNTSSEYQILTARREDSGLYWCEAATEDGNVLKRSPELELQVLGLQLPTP

Chain of UniProt P08637 (P08637 17-208 F176V limits assumed): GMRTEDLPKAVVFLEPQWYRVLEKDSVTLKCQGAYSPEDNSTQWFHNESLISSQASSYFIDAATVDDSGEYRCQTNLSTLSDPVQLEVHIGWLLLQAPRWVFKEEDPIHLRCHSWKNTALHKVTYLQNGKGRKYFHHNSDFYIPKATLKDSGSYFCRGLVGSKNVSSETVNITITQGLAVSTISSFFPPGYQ

One may read the Kd as the free concentration of one partner at which half of the binding sites on the other are occupied at equilibrium, for simple one-to-one binding. Higher therefore signals weaker binding. In the case of “IgG1f antibody (fucosylated, otherwise unmodified human IgG1f Fc region)”, the dissociation constant (Kd) in assay [1] came to 97 nM; in assay [2] it was 960 nM; in assay [3], 530 nM; with CD64 (FcγRIa) (human), 0.2 nM.
